Test results from paper PMC7145534, “Are the intrinsically disordered linkers involved in SSB binding to accessory proteins?” (Nucleic Acids Research, 2019).
“Also recorded” adds a separate entry of the source.

What was measured:
E. coli RecO = assay: ITC of SSB tetramers (apo) binding to RecO; parameters: species or system Escherichia coli
Method: The concentrations were determined thereafter.

(dT)70 = assay: ITC of SSB tetramers with (dT)70; format: binding
Method: Isothermal titration calorimetry (ITC) experiments were performed using a VP-ITC titration microcalorimeter (Malvern Panalytical, Malvern, UK) ([68]). All proteins and oligonucleotides were dialyzed extensively against the indicated buffer and cleared by centrifugation at 14 000 rpm for 15 min at 4°C. The concentrations were determined thereafter. For experiments with the SSB-Ct peptides and SIPs, 40–50 μM peptides were titrated into 1–2 μM SIPs in Buffer BTP at pH 8.0 and 50 mM NaCl. For experiments with the full-length SSB and its deletion mutants and SIPs, SSB tetramer (8–10 μM) was titrated into SIP (1 μM) in Buffer BTP at pH 7.0 and 200 mM NaCl. The heats of dilution were obtained by blank titrations in which the titrant species is titrated into the buffer, and corrections for heats of dilution were applied.
RecO (1 µM) in buffer BTP (pH 7.0, 200 mM NaCl) at 15° C and (b) 25° C.
(f) (dT)70 (15 µM) is titrated into

χ = assay: ITC of SSB-A binding to χ; parameters: species or system Escherichia coli; details: Buffer T pH 8.1, 200 mM NaCl, 25°C
Method: The concentrations were determined thereafter. […]
Figure S7. Results from various control ITC titrations of (a) SSB-A and RecO at 15°C and (b) 25°C, (c) SSB-A and c, (d) P65 and (dT)70, (e) (dT)70 and SSB-A, and (f) (dT)70 and wtSSB. (a) SSB-A (10 µM), a homo-tetrameric SSB variant containing an additional six amino acids, TGASGT, at the C-terminus of each subunit, was titrated into […]
(5.9 µM) was titrated into c (1 µM) in buffer T (10 mM Tris-HCl, pH 8.1, 200 mM NaCl, […]
0.1 mM EDTA) at 25° C. […] (d) dT70 (60 µM) was […]
titrated into P65 (2 µM) in buffer BTP (pH 7.0, 20 mM NaCl) at 25° C. P65, the full-length […]
(dT)70. (e) (dT)70 (15 µM) was titrated into SSB-A (1 µM) in buffer T at 25° C. SSB-A (also on this page, place not known: 15°C 25°C. 25°C. 25°C. 25°C. 2.00 kcal mol-1 of injectant kcal mol-1 of injectant [SSB-A]tot/[RecO]tot kcal mol-1 of injectant [SSB-A]tot/[c]tot (f)(d))

[1] = target: Escherichia coli PriC (E. coli) (UniProt P23862); assay: AUC; sedimentation velocity, 42 000 rpm, 25°C; PriC at 2 μM, without and with 30-fold excess P15; buffer BTP pH 8.0, same conditions as the ITC of PriC
RecO = details: for sedimentation coefficient, SSB alone: 0.35 μM tetramer, BTP pH 7.0, 200 mM NaCl, 25°C, no RecO
Method: Sedimentation velocity experiments were performed with an Optima XL-A analytical ultracentrifuge and An50Ti rotor (Beckman Coulter, Fullerton, CA, USA) at 42 000 rpm (25°C) as described ([50]). The concentrations used were 1–2 μM SIPs, 0.3–0.5 μM SSB tetramers, while monitoring absorbance at 230 or 280 nm. The experiments with SSB-Ct peptides were performed in Buffer BTP at pH 8.0 and 50 mM NaCl. The experiment with SSB proteins and the deletion constructs were performed in Buffer BTP at pH 7.0 and 200 mm NaCl. The sample (380 μl) and buffer (394 μl) were loaded into each sector of an Epon charcoal-filled two-sector centerpiece. Absorbance data were collected by scanning the sample cells at intervals of 0.003 cm. Data were analyzed using SEDFIT, to obtain c(s) distributions ([70]). The c(s) distribution function defines the populations of species with different sedimentation rates and represents a variant of the distribution of Lamm equation solutions ([70]). The density and viscosity of the experimental buffers at 25°C were determined using [sequence] […] The partial specific volume of (dT)70 used was 0.56 ml/g. In the experiments involving more than one species, the partial specific volumes of complexes were calculated assuming additivity using Equation (4), where = number of moles of species ‘i’, = molecular weight of species ‘i’, and = partial specific volume of each species i.(4)
RecO binding to SSB tetramers with portions of the IDL deleted. […] (C) The results of sedimentation velocity experiments, plotted as the c(s) distribution ([70]) for each SSB construct (0.35 μM tetramer) in the absence (black lines) and presence (red lines) of 2.5 molar excess of RecO (3.5 μM) per C-terminus.

PriA = details: previous study; cited from earlier work
Method: All binding reactions were performed under identical solution conditions, although additional experiments were performed at a lower [NaCl] for PriC as indicated, ...

DNA Pol III (χ) = details: cited from earlier work
Excerpt: When DNA is bound to the DBD, the acidic tip no longer interacts with the DBD and thus is more available to interact with a SIP. This is supported by the observation that ΔH = −6.0 ± 0.1 kcal/mol for RecO binding to the SSBΔ120-166–(dT)70 complex, which should not contain contributions from the acidic tip-DBD intramolecular interactions.

[2] = target: T1, Escherichia coli RecO protein (E. coli, UniProt P0A7H3 1-242); assay: ITC; P15 and RecO; buffer BTP pH 7.0, 200 mM NaCl, 25°C; N fixed to 1; details: both partners purified
T1 construct: E. coli RecO, recombination mediator of the RecF pathway; source: E. coli BL21(DE3)pLysS, plasmid pMCSG7, purified (Ni-NTA, HiTrap Heparin HP) after His-tag cleavage with TEV protease
T1 sequence (looked up): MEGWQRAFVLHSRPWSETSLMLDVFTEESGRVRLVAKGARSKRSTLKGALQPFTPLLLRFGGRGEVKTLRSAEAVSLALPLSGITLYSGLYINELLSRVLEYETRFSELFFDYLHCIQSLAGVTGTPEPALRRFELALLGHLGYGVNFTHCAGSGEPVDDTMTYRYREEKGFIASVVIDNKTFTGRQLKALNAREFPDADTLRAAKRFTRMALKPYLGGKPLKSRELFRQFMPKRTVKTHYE

[3] = target: T1, Escherichia coli RecO protein; assay: ITC; P15 and RecO; buffer BTP pH 7.0, 200 mM NaCl, 37°C; N fixed to 1; details: both partners purified
Escherichia coli PriC [4] = target: T2, Escherichia coli PriC (E. coli, UniProt P23862 1-175); assay: ITC; SSB-Ct peptide titrated into PriC; buffer BTP pH 8.0, 10 mM NaCl, 25°C; N fixed to 1 for the values of Table 1; details: both partners purified
T2 construct: E. coli PriC, replication restart protein; source: E. coli BL21(DE3), plasmid pET11a-EcoPriC (pAM001), purified (Macro-Prep High S, HiPrep Sephacryl S-200 HR)
T2 sequence (looked up): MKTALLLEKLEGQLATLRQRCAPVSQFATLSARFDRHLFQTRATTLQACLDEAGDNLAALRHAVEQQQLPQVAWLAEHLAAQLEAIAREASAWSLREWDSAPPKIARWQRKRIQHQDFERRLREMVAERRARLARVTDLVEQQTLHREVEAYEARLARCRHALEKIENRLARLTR

[5] = target: T1, Escherichia coli RecO protein; assay: ITC; P15 and RecO; buffer BTP pH 8, 200 mM NaCl, 25°C; N fixed to 1; details: both partners purified
[6] = target: T1, Escherichia coli RecO protein; assay: ITC; SSB-Ct peptide (40–50 μM) titrated into SIP (1–2 μM); buffer BTP (20 mM Bis-Tris Propane, 25% glycerol, 1 mM TCEP) pH 8.0, 50 mM NaCl, 25°C; observed association constants; N fixed to 1 for the values of Table 1; details: both partners purified
Escherichia coli PriA [7] = target: T3, Escherichia coli PriA (E. coli, UniProt P17888 1-732); assay: as above; details: both partners purified
T3 construct: E. coli PriA, replication restart protein

[8] = target: T4, chi (χ) subunit of DNA polymerase III (E. coli, UniProt P28905 1-147); assay: as above; details: both partners purified
T4 construct: E. coli DNA polymerase III chi subunit; also called χ protein; DNA Pol III (χ)

[9] = target: T1, Escherichia coli RecO protein; assay: ITC; P15 and RecO; buffer BTP pH 7.0, 200 mM NaCl, 15°C; N fixed to 1; details: both partners purified
Escherichia coli PriC [10] = target: T2, Escherichia coli PriC; assay: ITC; SSB-Ct peptide titrated into PriC; buffer BTP pH 8.0, 10 mM NaCl, 25°C; N fixed to 1 for the values of Table 1; details: both partners purified; remark: listed apart in the source
[11] = target: T1, Escherichia coli RecO protein; assay: ITC; SSB-Ct peptide (40–50 μM) titrated into SIP (1–2 μM); buffer BTP (20 mM Bis-Tris Propane, 25% glycerol, 1 mM TCEP) pH 8.0, 50 mM NaCl, 25°C; observed association constants; N fixed to 1 for the values of Table 1; details: both partners purified; remark: listed apart in the source
Escherichia coli PriA [12] = target: T3, Escherichia coli PriA; assay: as above; details: both partners purified; remark: listed apart in the source
[13] = target: T4, chi (χ) subunit of DNA polymerase III; assay: as above; details: both partners purified; remark: listed apart in the source
[14] = target: P65 (SSB C-terminal peptide) (Escherichia coli, UniProt P0AGE0 114-178); assay: ITC; no detectable interaction; ITC; buffer BTP (20 mM Bis-Tris propane, 25% v/v glycerol, 1 mM TCEP), pH 7.0, 200 mM NaCl, 25 C for SSB experiments; buffer/pH of individual (dT)70 titrations; details: single-stranded
SSB-A = SSB-A (Escherichia coli, UniProt P0AGE0 2-178+=TGASGT, internal_change); assay: ITC; (dT)70 titrated with SSB-A; stoichiometric binding, 1:1; dH similar to wtSSB (-131 kcal/mol in earlier work); ITC; buffer BTP (20 mM Bis-Tris propane, 25% v/v glycerol, 1 mM TCEP), pH 7.0, 200 mM NaCl, 25 C for SSB experiments; buffer/pH of individual (dT)70 titrations; details: protein: recombinant; chain copies: 4; single-stranded
SSB (wtSSB) = SSB (wtSSB) (Escherichia coli, UniProt P0AGE0 2-178); assay: ITC; 1:1 complex at 200 mM NaCl, (SSB)65 mode; (dT)70 (15 uM) titrated with SSB; ITC; buffer BTP (20 mM Bis-Tris propane, 25% v/v glycerol, 1 mM TCEP), pH 7.0, 200 mM NaCl, 25 C for SSB experiments; buffer/pH of individual (dT)70 titrations; details: protein: recombinant; chain copies: 4; single-stranded
[15] = target: the molecule itself; assay: AUC; sedimentation velocity, 42 000 rpm, 25°C; SSB construct 0.35 μM tetramer alone and with 3.5 μM RecO (2.5 molar excess per C-terminus); buffer BTP pH 7.0, 200 mM NaCl
[16] = target: Escherichia coli RecO protein (E. coli) (UniProt P0A7H3); assay: ITC; apo SSBΔ120-166 tetramer and RecO; 10°C; N fixed to 4 in Table 3
[17] = target: Escherichia coli RecO protein (E. coli) (UniProt P0A7H3); assay: ITC; SSB tetramer–(dT)70 complex (9–10 μM) titrated into RecO (1 μM); buffer BTP pH 7.0, 200 mM NaCl, 25°C; N fixed to 4, K and ΔH per C-terminus
[18] = target: Escherichia coli RecO protein (E. coli) (UniProt P0A7H3); assay: ITC; apo SSB tetramer (9–10 μM) titrated into RecO (1 μM); buffer BTP pH 7.0, 200 mM NaCl, 25°C; N fixed to 4 RecO per tetramer, K and ΔH per C-terminus
[19] = target: Escherichia coli RecO protein (E. coli) (UniProt P0A7H3); assay: ITC; SSB tetramer (10 µM) titrated into RecO (1 µM); buffer BTP pH 7.0, 200 mM NaCl, 10°C; N floated, N = RecO per SSB tetramer; ΔH per C-terminus

## SSB-A: additional six amino acids, TGASGT, extending the C-terminus of wtSSB
E. coli RecO; absence of ssDNA, BTP pH 7.0, 200 mM NaCl, 15°C and 25°C
  binding to RecO by ITC: not interact with RecO; also recorded: eliminates binding to RecO
(dT)70; Buffer T pH 8.1, 200 mM NaCl, 25°C
  binding to (dT)70 by ITC: binds stoichiometrically
χ
  binding to χ by ITC: does not show binding

## Escherichia coli PriC (from UniProt P23862 1-175) (natural protein)
[1]
  percent of the monomeric species: 48.1%

## wtSSB: E. coli single strand DNA binding protein, homo-tetramer, wild type
E. coli RecO; apo, 25°C, BTP pH 7, 200 mM NaCl
  K: (1.5 ± 0.2) × 10^6 M^−1
RecO
  sedimentation coefficient, SSB alone: 1.4 S
RecO; 10-fold molar excess of RecO to SSB tetramer
  complex formation with RecO: RecO forms complexes with wtSSB
(dT)70; BTP pH 7.0, 200 mM NaCl
  binding to (dT)70 by ITC: binds stoichiometrically

## MDFDDDIPF [P9]
PriA
  binding to PriA: binds with specificity
DNA Pol III (χ)
  affinity and ΔH for χ binding versus (dT)70-bound SSB: very similar
DNA Pol III (χ); previous study
  binding to χ: binds with specificity

B1: SSB-Ct peptide P15 (C-terminal 15 amino acids of E. coli SSB) (peptide, UniProt P0AGE0 164-178, looked up)
peptide: PSNEPPMDFDDDIPF
notes: E. coli SSB, the C-terminal 15 amino acids; Holds none of the PXXP motifs; also called acidic tip peptide; source: synthetic peptide; bought: WatsonBio
[2]
  dH: -6 ± 0.2 kcal/mol
[3]
  dH: -7.8 ± 0.8 kcal/mol
Escherichia coli PriC [4]
  stoichiometry N: 1
[5]
  dH: -3.9 ± 0.1 kcal/mol
[6]
  dH: -5.2 ± 0.1 kcal/mol
Escherichia coli PriA [7]
  dH: -9.6 ± 0.3 kcal/mol
[8]
  dH: -9.3 ± 0.1 kcal/mol
[9]
  dH: -2.4 ± 0.2 kcal/mol
Escherichia coli PriC [10]
  dH: -2.7 ± 0.1 kcal/mol
[11]
  stoichiometry N: 1
Escherichia coli PriA [12]
  stoichiometry N: 1
[13]
  stoichiometry N: 1

B2: (dT)70 (ssDNA)
DNA: TTTTTTTTTTTTTTTTTTTTTTTTTTTTTTTTTTTTTTTTTTTTTTTTTTTTTTTTTTTTTTTTTTTTTT
[14]
  binding result: no binding
SSB-A
  binding result: binds
SSB (wtSSB)
  binding result: binds

B3: SSBΔ120-166 tetramer (natural protein, E. coli, UniProt P0AGE0 1-178, looked up)
chain: MASRGVNKVILVGNLGQDPEVRYMPNGGAVANITLATSESWRDKATGEMKEQTEWHRVVLFGKLAEVASEYLRKGSQVYIEGQLRTRKWTDQSGQDRYTTEVVVNVGGTMQMLGGRQGGGPPMDFDDDIPF
notes: E. coli SSB with residues 120-166 of the IDL deleted, acidic tip kept; All three PXXP motifs deleted; only nine residues of the IDL left; Used apo and in complex with (dT)70
[15]
  stoichiometry N: 4
[16]
  Ka: 370000 M⁻¹
  dH (per tip, ΔH/4): -8.1 kcal/mol
[17]
  dH (per tip, ΔH/4): -6 kcal/mol
E. coli RecO; apo, 25°C, BTP pH 7.0, 200 mM NaCl, N fixed to 4
  K (observed association equilibrium constant): Not detected
E. coli RecO; apo, 25°C, pH 7.0, 200 mM NaCl
  RecO binding detected by ITC: undetectable; also recorded: could not be detected
RecO
  sedimentation coefficient, SSB alone: 1.3 S
[18]
  dH (per tip, ΔH/4): 0 kcal/mol
[19]
  Ka: 373000 M⁻¹
  stoichiometry N: 4.03
